Assay results reported in paper PMC9122904, “Insights into the client protein release mechanism of the ATP-independent chaperone Spy” (Nature Communications, 2022).

Legend:
Test in all cases: BLI; Octet RED96; client biotinylated and loaded on streptavidin sensors; Spy or Spy variant in solution at 0.25, 0.5, 1, 1.5 and 2 μM; 40 mM HEPES, 150 mM NaCl, pH 7.5; Kd calculated as koff/kon
Settings in all cases: both partners purified
Spy_(24-127) = target: T1, Spy_(24-127) (UniProt P77754 47-150)
T1 construct: Spy chaperone, residues 24-127; source: E. coli BL21 (DE3), purified (Ni-NTA, cation exchange, SEC); not shown: His6, N-terminal, cleaved; SUMO, N-terminal, cleaved
T1 sequence (looked up): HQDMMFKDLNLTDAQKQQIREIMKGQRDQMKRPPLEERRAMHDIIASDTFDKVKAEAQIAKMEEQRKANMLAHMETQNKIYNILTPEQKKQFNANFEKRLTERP
How it was run: (§1)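 Association was recorded with an Octet RED96 as streptavidin sensors carrying client proteins, biotinylated with EZ-link NHS-biotin at a 1:1 molar ratio, sat in 40 mM HEPES, 150 mM NaCl, pH 7.5 with 0.25 to 2 μM of the analyte protein (0.25, 0.5, 1, 1.5 and 2 μM). Dissociation followed after transfer to analyte-free buffer. Both wavelength-shift phases were fitted in SigmaPlot 12.0 to obtain koff and the observed association rate, whose dependence on analyte concentration yielded kon, with Kd defined as koff divided by kon.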

Spy_(29-130) = target: T2, Spy_(29-130) (UniProt P77754 52-153)
T2 construct: Spy chaperone, residues 29-130; source: E. coli BL21 (DE3), purified (Ni-NTA, cation exchange, SEC); not shown: His6, N-terminal, cleaved; SUMO, N-terminal, cleaved
T2 sequence (looked up): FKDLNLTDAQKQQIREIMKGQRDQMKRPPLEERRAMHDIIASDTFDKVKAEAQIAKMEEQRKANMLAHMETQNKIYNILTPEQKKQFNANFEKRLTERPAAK
How it was run: as §1

Spy_(24-124) = target: T3, Spy_(24-124) (UniProt P77754 47-147)
T3 construct: source: E. coli BL21 (DE3), purified (Ni-NTA, cation exchange, SEC); not shown: His6, N-terminal, cleaved; SUMO, N-terminal, cleaved
T3 sequence (looked up): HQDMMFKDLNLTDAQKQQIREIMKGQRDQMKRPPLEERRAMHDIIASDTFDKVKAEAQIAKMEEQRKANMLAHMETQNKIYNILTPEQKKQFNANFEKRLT
How it was run: as §1

Spy_(21-127) = target: T4, Spy_(21-127) (UniProt P77754 44-150)
T4 construct: Spy chaperone, residues 21-127; source: E. coli BL21 (DE3), purified (Ni-NTA, cation exchange, SEC); not shown: His6, N-terminal, cleaved; SUMO, N-terminal, cleaved
T4 sequence (looked up): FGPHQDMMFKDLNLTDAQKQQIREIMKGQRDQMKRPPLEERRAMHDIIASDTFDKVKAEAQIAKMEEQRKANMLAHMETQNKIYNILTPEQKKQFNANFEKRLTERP
How it was run: as §1

Spy_(29-138) = target: T5, Spy_(29-138) (UniProt P77754 52-161)
T5 construct: source: E. coli BL21 (DE3), purified (Ni-NTA, cation exchange, SEC); not shown: His6, N-terminal, cleaved; SUMO, N-terminal, cleaved
T5 sequence (looked up): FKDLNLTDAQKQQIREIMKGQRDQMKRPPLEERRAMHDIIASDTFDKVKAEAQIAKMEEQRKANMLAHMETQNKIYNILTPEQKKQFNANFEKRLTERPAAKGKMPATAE
How it was run: as §1

Spy_(27-124) = target: T6, Spy_(27-124) (UniProt P77754 50-147)
T6 construct: source: E. coli BL21 (DE3), purified (Ni-NTA, cation exchange, SEC); not shown: His6, N-terminal, cleaved; SUMO, N-terminal, cleaved
T6 sequence (looked up): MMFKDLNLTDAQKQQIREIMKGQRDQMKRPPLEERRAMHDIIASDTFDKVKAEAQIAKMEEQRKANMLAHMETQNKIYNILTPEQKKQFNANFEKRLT
How it was run: as §1

Spy_(24-130) = target: T7, Spy_(24-130) (UniProt P77754 47-153)
T7 construct: Spy chaperone, residues 24-130; source: E. coli BL21 (DE3), purified (Ni-NTA, cation exchange, SEC); not shown: His6, N-terminal, cleaved; SUMO, N-terminal, cleaved
T7 sequence (looked up): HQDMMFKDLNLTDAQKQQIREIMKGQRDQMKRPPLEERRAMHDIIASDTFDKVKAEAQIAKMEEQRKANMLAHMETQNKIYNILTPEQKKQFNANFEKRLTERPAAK
How it was run: as §1

Spy_(27-130) = target: T8, Spy_(27-130) (UniProt P77754 50-153)
T8 construct: Spy chaperone, residues 27-130; source: E. coli BL21 (DE3), purified (Ni-NTA, cation exchange, SEC); not shown: His6, N-terminal, cleaved; SUMO, N-terminal, cleaved
T8 sequence (looked up): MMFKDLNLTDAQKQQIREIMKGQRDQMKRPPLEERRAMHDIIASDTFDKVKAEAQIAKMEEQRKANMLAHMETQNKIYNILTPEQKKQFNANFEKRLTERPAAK
How it was run: as §1

kon (Spy_(24-127)): 227000 M⁻¹ s⁻¹
kon (Spy_(29-130)): 283000 M⁻¹ s⁻¹
kon (Spy_(24-124)): 258000 M⁻¹ s⁻¹
kon (Spy_(21-127)): 258000 M⁻¹ s⁻¹
kon (Spy_(29-138)): 286000 M⁻¹ s⁻¹
kon (Spy_(27-124)): 314000 M⁻¹ s⁻¹
kon (Spy_(24-130)): 210000 M⁻¹ s⁻¹
kon (Spy_(27-130)): 313000 M⁻¹ s⁻¹
B1: Im7 H40W L53A I54A (natural protein)
chain: MELKNSISDYTEAEFVQLLKEIEKENVAATDDVLDVLLEWFVKITEHPDGTDAAYYPSDNRDDSPEGIVKEIKEWRAANGKPGFKQG
modifications: biotin (EZ-link NHS-biotin, 1:1 molar ratio of biotin to protein)
notes: Im7 (colicin E7 immunity protein) with H40W L53A I54A; Spy was made with an N-terminal His6-SUMO tag that was cleaved; also called Im7AAW; partially folded client; source: purified by a similar procedure to Spy
